{"source": "the nanobody polyreactivity screen of Harvey et al. (2022)", "data": [{"test": "yeast display, Sf9 membrane polyspecificity reagent, FACS + sequencing; frameworks hold sequencing errors", "procedure,_shortened": "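Galactose-induced (36–48 hours) yeast carrying a synthetic nanobody display library were exposed to 10% biotinylated, detergent-solubilized Sf9 membrane reagent at 4 °C for 1 hour. FACS followed streptavidin microbead enrichment, using low and high (top ~1%) gates for expression (anti-HA) and reagent binding (streptavidin). Colony PCR, MiSeq 2 × 250 sequencing and CDR-length filtering followed. Labels for polyreactivity reflect the gate of origin.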", "values": [{"sequence": "QVQLVESGGGLVQAGGSLRLSCAASGRTFNAMGWSRQAPGKERELVASISRRGGSTSYADSVKGRFTISRDNAKNTVYLQMYSLKPEDTAVYYCAARVGWVRYGYWGQGTQVTVSS", "polyreactivity (PSR sort gate)": "low polyreactivity"}, {"sequence": "QVQLVESGGGLVQAGGSLRLSCAASGRTFNDYTMGWYRQAPGKERELVAAISSSGVRTYYADSVKGRFTISRDNAKNTVYLQMNSLKPEDTAVYYAKRAGYDRRWTYDYWGQGTQVTVSS", "polyreactivity (PSR sort gate)": "high polyreactivity"}, {"sequence": "QVQLVESGGGLVQAGGSLRLSCAASGRTFNFYAMGWYRQAPGKERELVATISGGVSTYYADSVKGRFTISRDNAKNTVYLQMNSLKPEDTAVYYCAKDSGYPQWDLDYWGQGTQVTVSS", "polyreactivity (PSR sort gate)": "high polyreactivity"}, {"sequence": "QVQLVESGGGLVQAGGSLRLSCAASGRTFNGDAMGWYRQAPGKERELVAAISSSGGSTYYADSVKGRFTISRDNAKNTVYLQMNSLKPEDTAVYYCAARRANGFNYWGHGTQVTVSS", "polyreactivity (PSR sort gate)": "high polyreactivity"}, {"sequence": "QVQLVESGGGLVQAGGSLRLSCAASGRTFNGNTMGWYRQAPGKERQLVAAISRNGGRTYYADSVKGRFTISRDNAKNTVYLQMNSLKPEDTAVYYCATVYRPGGVYGYWGQGTQVTVSS", "polyreactivity (PSR sort gate)": "high polyreactivity"}, {"sequence": "QVQLVESGGGLVQAGGSLRLSCAASGRTFNGYAMGWYRQAPGKERELVAGISWRGTSTYYADSVKGRFTISRDNAKNTVYLQMNSLKPEDTAVYYCAADVWRVQHRGYNYWGQGTQVTVSS", "polyreactivity (PSR sort gate)": "high polyreactivity"}, {"sequence": "QVQLVESGGGLVQAGGSLRLSCAASGRTFNGYVMGWYSQAPGKEREFVAVINWSGGNTYYADSVKGRFTISRDNAKNTVYLQMNSLKPEDTAVYYCAARRVRSYAYDYWGQGTQVTVSS", "polyreactivity (PSR sort gate)": "high polyreactivity"}, {"sequence": "QVQLVESGGGLVQAGGSLRLSCAASGRTFNIYAMGWYRQAPGKERELVAAITWRSGSTYYADSVKGRFTISRDNAKNTVYLQMNSLTPEDTAVYYCAAEQWSCVPEFDYWGQGTQVTVSS", "polyreactivity (PSR sort gate)": "high polyreactivity"}, {"sequence": "QVQLVESGGGLVQAGGSLRLSCAASGRTFNIYAMGWYRQAPGKVRELVAAISSGGSTYYADSVKGRFTISRDNAKNTVYLQMNSLKPEDTAVYYCAAVEFELRGDYWGQGTQVTVSS", "polyreactivity (PSR sort gate)": "low polyreactivity"}, {"sequence": "QVQLVESGGGLVQAGGSLRLSCAASGRTFNPYVMGWYRQAPGKERELVARIRGSGTSTYYADSVKGRFTISRDNAKNTVYLHMNSLKPEDTAVYYCAAAQSKYSFYWGDYYYWGQGTQVTVSS", "polyreactivity (PSR sort gate)": "high polyreactivity"}, {"sequence": "QVQLVESGGGLVQAGGSLRLSCAASGRTFNRNAMGWYRPAPGKERELVAAISWGGSRTYYADSVKGRFTISRDNAKNTVYLQMNSLKPEDTAVYYCAVDGFRGRSHGANDYWGQGTQVTVSS", "polyreactivity (PSR sort gate)": "high polyreactivity"}, {"sequence": "QVQLVESGGGLVQAGGSLRLSCAASGRTFNRNAMGWYRQAPGKERELVAAISWGGSRTYYADSVKGRFTISRDNAKNTVYLQMNSLKPEDTAVYYCAVDGFRGRSHGANDYWGQGTQVTVSS", "polyreactivity (PSR sort gate)": "high polyreactivity"}, {"sequence": "QVQLVESGGGLVQAGGSLRLSCAASGRTFNRNAMGWYRQAPGKERELVAAISWGGSRTYYADSVKGRFTISRDTAKNTVYLQMNSLKPEDTAVYYCAVDGFRGRSHGANDYWGQGTQVTVSS", "polyreactivity (PSR sort gate)": "high polyreactivity"}, {"sequence": "QVQLVESGGGLVQAGGSLRLSCAASGRTFNRNTMGWYRQAPGKERELVAGITKRGGSTYYADSVKGRFTISRDNAKNTVYLQMNSLKPEDTAVYYCNAATNGSPPDYDYWGQGTQVNVSS", "polyreactivity (PSR sort gate)": "high polyreactivity"}, {"sequence": "QVQLVESGGGLVQAGGSLRLSCAASGRTFNRYAMGWYRQAPGKERELVAAINSVGSTYYADSVKGRFPISRDNAKNTVYLQMNSLKPEDTAVYYCNAVQGSRFGYWGQGTQVTVSS", "polyreactivity (PSR sort gate)": "high polyreactivity"}, {"sequence": "QVQLVESGGGLVQAGGSLRLSCAASGRTFNRYAMGWYRQAPGKERELVAAISYGGGRTYYADSVKGRFTISRDNAKNTVYLQMYSLKPEDTAVYYCNAVFGYQSPGGYDYWGQGTQVTVSS", "polyreactivity (PSR sort gate)": "high polyreactivity"}]}]}
